The values below come from FireProtDB (doi:10.1021/bi00158a021).

The conditions of this data set: Bos taurus, pH 8, GdnHCl, CD, cacodylate 50 mM, reversible: yes.

Consider Phospholipase A2 F128I, P00593, for which, for the setting “30 °C, structure 1BP2”, the “ddG of mutation (higher = less stable)” value was -1.9 kcal/mol, the denaturant m value came to 1.65 kcal/mol/M, the “denaturant midpoint (higher = more stable)” value (“denaturant midpoint” below) came out at 6.9 M and the unfolding free energy worked out at 11.4 kcal/mol.
For Phospholipase A2 F44I, P00593 the same measures were -2.7 kcal/mol, 1.73 kcal/mol/M, 7 M and 12.2 kcal/mol.
As for Phospholipase A2 F128A, P00593, under “25 °C, structure 1BP2”, the “ddG of mutation (higher = less stable)” value is 0.9 kcal/mol, the denaturant m value worked out at 1.47 kcal/mol/M, the “denaturant midpoint” value came to 5.9 M and the unfolding free energy was found to be 8.6 kcal/mol.
For the substance Phospholipase A2 F128Y, P00593, for the setting “30 °C, structure 1BP2”, the “ddG of mutation (higher = less stable)” value is -0.6 kcal/mol, the denaturant m value came to 1.53 kcal/mol/M, the “denaturant midpoint” value was 6.6 M and the unfolding free energy was 10.1 kcal/mol.
Regarding Phospholipase A2 wild type, P00593, under “30 °C”, the denaturant m value was 1.47 kcal/mol/M, the “denaturant midpoint” value came to 6.9 M and the unfolding free energy stood at 9.5 kcal/mol.
As to Phospholipase A2 F44Y, P00593, where the note is “30 °C, structure 1BP2”, the “ddG of mutation (higher = less stable)” value is -1.5 kcal/mol, the denaturant m value came to 1.58 kcal/mol/M, the “denaturant midpoint” value was found to be 7 M and the unfolding free energy came to 11 kcal/mol.
